# Measured values taken from the supplement of paper PMC10724198.
# ± gives the standard deviation of the averaged measurements.
# Tested on: Saccharomyces cerevisiae
# Assay: protein stability index of tFT-peptide fusion (C-terminal peptide) (PSI (0-1 scale)); higher = more stable (slower turnover)
# Settings: genetic background: wild type; temperature: 30 C
# 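Further: PSI is a weighted mean of sequencing reads over stability bins, variants kept only with over 10 reads, mCherry proximal and sfGFP distal, peptide attached via GGGS linker.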
row,Sequence,protein stability index
1,GGAGGGVWGGGV,0.735 ± 0.014
2,TSWLHTCMKCSL,0.728 ± 0.017
3,RMTRIKKKINKS,0.719 ± 0.034
4,TEKWTRSSPMTR,0.764 ± 0.087
5,SSPPPRSLPSPP,0.714 ± 0.046
6,PPPLPSPAPPPP,0.709 ± 0.053
7,RCNFHILEIRKY,0.667 ± 0.0057
8,VLWLGSFKSPRR,0.727 ± 0.022
9,CLPCSGWLSWPH,0.664 ± 0.0069
10,ARPRSGIRGSGV,0.6848 ± 0.0048
11,KLKIMEDQGKKK,0.706 ± 0.12
12,GGRGGATRRGSL,0.764 ± 0.055
13,PFYTNSSFCSLT,0.6677 ± 0.00075
14,EWGEEDRDGNGR,0.721 ± 0.053
15,KSQATELKKVNG,0.65 ± 0.037
16,VAGGGVAMVGSA,0.619 ± 0.069
17,EITRRAQHWKAK,0.708 ± 0.018
18,GLGATSGGLRCG,0.654 ± 0.014
19,SGLRHLLPSGHN,0.711 ± 0.041
20,GWGPSSAGGAGG,0.752 ± 0.12
21,WVKTLEKEDHVI,0.759 ± 0.21
22,SPARLRHSLSLP,0.723 ± 0.014
23,TSNRLDVDFPLS,0.699 ± 0.0087
24,PSSPPPPPLPPC,0.649 ± 0.058
25,KHKGRSKETHDV,0.616 ± 0.09
26,NGRTYIDEESKI,0.745 ± 0.16

row,Sequence,protein stability index
1,ALSPSLWCYFPT,0.71 ± 0.029
2,MRECGLSEARGG,0.651 ± 0.021
3,PLLPPLSPPLPS,0.7 ± 0.0078
4,GLFSRGKLIALS,0.571 ± 0.099
5,AGKVCGVGRLSI,0.65 ± 0.033
6,NKTKKKRTEPQP,0.6616 ± 0.005
7,GKLQFAEYYNGI,0.66 ± 0.0081
8,YTPALFLPVRPA,0.715 ± 0.06
9,EAGMGVGRCGTG,0.728 ± 0.01
10,VKTETNTDGKKR,0.67 ± 0.15
11,IVAWQGRNLTPL,0.655 ± 0.12
12,RKMRNGRKRKKK,0.62 ± 0.025
13,TMFTISGWPLFG,0.633 ± 0.044
14,TGLRLFRPLSLP,0.776 ± 0.069
15,SPPPSSPPAPPR,0.717 ± 0.11
16,VRRGCGVGACPG,0.618 ± 0.017
17,VPCCSAVDLLVS,0.5999 ± 0.0045
18,PLCSPPSPASNL,0.714 ± 0.067
19,PASPPPAPRPPP,0.65 ± 0.0081
20,GVWPWWGWSCCF,0.782 ± 0.1
21,VGLSVRFPVANH,0.673 ± 0.037
22,RRRGSLGGVRGN,0.707 ± 0.058
23,TTGKEAQYEARK,0.664 ± 0.071
24,GGGEWGLGVRPR,0.725 ± 0.008
25,WGIVGLRGSRVG,0.618 ± 0.018
26,QQKYKLIQLVII,0.584 ± 0.017

row,Sequence,protein stability index
1,ARLDVFTMYKDR,0.748 ± 0.056
2,IILRSSLLPLLY,0.548 ± 0.013
3,ITGSRVQVYIGR,0.693 ± 0.021
4,NSAPPPPHTPPP,0.699 ± 0.018
5,LGGGNVGHSRIW,0.623 ± 0.073
6,GRILGEGWVCVV,0.663 ± 0.087
7,TILPDYTSRILA,0.62 ± 0.012
8,LGGLRRGSGREG,0.678 ± 0.015
9,CKVRSYDDFVLV,0.6231 ± 0.002
10,KNVHKDNRSVKK,0.677 ± 0.14
11,LLRVTVCELAYK,0.55 ± 0.018
12,RDKAVAGKKGGS,0.682 ± 0.017
13,VRCRLLDVGDAS,0.642 ± 0.026
14,LTRLETSNITAI,0.679 ± 0.041
15,QNKTKRMQKTKA,0.629 ± 0.047
16,GLGGAWACGGGR,0.719 ± 0.11
17,PPSLTSPRHPPT,0.669 ± 0.022
18,LGWGWVWSWGRG,0.728 ± 0.052
19,IWAKLGFRLQYS,0.701 ± 0.13
20,PLQPRVLPSPRR,0.688 ± 0.0011
21,ETEQTSIRRIKQ,0.728 ± 0.012
22,YRERSTIKITGN,0.671 ± 0.054
23,LGGSVAIWSWNP,0.763 ± 0.12
24,WCRGVGSWRGRG,0.688 ± 0.008
25,SPPGPNQVARPP,0.6873 ± 0.0057
26,GVACEGRGGRCW,0.689 ± 0.012

row,Sequence,protein stability index
1,PPSLHSRAFTLS,0.557 ± 0.2
2,SPPSPPALTPSP,0.643 ± 0.048
3,GVCASGAGSVGG,0.662 ± 0.029
4,PPPPPTSPPPHP,0.706 ± 0.032
5,RTSKSLSKVESW,0.6415 ± 0.0031
6,FRFSELPTGFGQ,0.664 ± 0.058
7,VGGWGGVGTCVW,0.711 ± 0.047
8,GPRDPSCLLPPL,0.653 ± 0.013
9,RERVVSVKLGGG,0.688 ± 0.018
10,SPPPLPPPTLPT,0.791 ± 0.084
11,ARTILGSFILHP,0.662 ± 0.049
12,SIENEYAMERKK,0.707 ± 0.056
13,SLLSFLLRSFFP,0.722 ± 0.065
14,FGGSFEGRGRYY,0.737 ± 0.018
15,KINKNMDYKYQK,0.673 ± 0.095
16,AILHFTVSPRVY,0.561 ± 0.0097
17,AGSSQWSLGQLG,0.6345 ± 0.002
18,DSCPGAAGGRGG,0.642 ± 0.043
19,VPWGGLRFRDWW,0.659 ± 0.099
20,LSAFLLLMPRLP,0.659 ± 0.01
21,PPPPSRPPPAPR,0.701 ± 0.053
22,VTYFIPVTNRAS,0.605 ± 0.0074
23,KIKNHQRQIMNT,0.494 ± 0.092
24,VQVSGFPHSRTR,0.691 ± 0.023
25,IPSLSLPLQTGS,0.64 ± 0.055
26,SRELPPPLLRSS,0.692 ± 0.072

row,Sequence,protein stability index
1,GAGGCNVGWRIR,0.7265 ± 0.0014
2,HRVRICWVPRSR,0.674 ± 0.027
3,PPLPFPPLPPSP,0.74 ± 0.063
4,NGYASLGGEPKR,0.7576 ± 0.0041
5,APPSPPSPPGLP,0.672 ± 0.033
6,SFHIAARFRSLP,0.719 ± 0.062
7,GGGGGERGRGGS,0.708 ± 0.02
8,PLNALLHSNPDK,0.711 ± 0.1
9,TRPHASPPPPPP,0.695 ± 0.024
10,KNEIRLKEDIRC,0.718 ± 0.017
11,QTMYFLRKEKEN,0.696 ± 0.063
12,LWFCGLWPRVSG,0.6384 ± 0.00068
13,GWWLFRSRWWHE,0.573 ± 0.022
14,RSWSSIASSSTM,0.7285 ± 0.0037
15,RVGGGGWPSGVV,0.747 ± 0.047
16,AAGEGSAPTRDR,0.672 ± 0.028
17,PPPPPLPQAPPT,0.687 ± 0.014
18,TGMRKDLVVSFW,0.728 ± 0.051
19,RGWWVLWGGGWG,0.551 ± 0.025
20,PPPNSTPNPLST,0.7394 ± 0.0058
21,LSLPPHASPTPS,0.735 ± 0.055
22,PPPTSPPHPPSP,0.701 ± 0.083
23,GACPARGRFLRR,0.753 ± 0.086
24,SGVIRLRAVELF,0.5726 ± 0.0017
25,IRQPIPTKVHRL,0.744 ± 0.045
26,PYPPSSLPLQPA,0.654 ± 0.025

row,Sequence,protein stability index
1,STGAVREFRFFA,0.643 ± 0.053
2,SNPFPTILSSSS,0.736 ± 0.037
3,PPRAPFVSPFGY,0.723 ± 0.012
4,AYRLWQTESKFD,0.699 ± 0.057
5,FSLGPSPLRPHA,0.611 ± 0.086
6,AVGMGCLSFFVV,0.553 ± 0.056
7,APDPTIPYSPTP,0.717 ± 0.028
8,WEGAGGGFGLVV,0.712 ± 0.05
9,SAWHRGCSCHLC,0.682 ± 0.029
10,RPPPPPHRTGDC,0.607 ± 0.02
11,PPPPLPLPPSLP,0.5979 ± 0.0054
12,SARVVCSSCFPM,0.668 ± 0.017
13,CLTRFFQPYGSL,0.667 ± 0.059
14,AWGGGSVVFWAV,0.692 ± 0.055
15,RHLMNYEKRNAN,0.723 ± 0.053
16,GLRLFWFRRVRA,0.537 ± 0.012
17,YQCGRRVGSACD,0.645 ± 0.023
18,RICPEVSSVLIR,0.682 ± 0.035
19,QVRPKGDPRARV,0.644 ± 0.1
20,WVGPGGAVENKV,0.7013 ± 0.0032
21,GVYSVACVSGSV,0.64 ± 0.014
22,EWEEGREIGGRV,0.69633 ± 0.00068
23,QFTRSRSRRVRS,0.6385 ± 0.0048
24,PPPPRPSSDRFR,0.684 ± 0.016
25,KEEIRNKIKTIK,0.6809 ± 0.0063
26,SPPSPLALSLRF,0.707 ± 0.025

row,Sequence,protein stability index
1,PLSPPPLPFPLL,0.589 ± 0.0018
2,VCLGRSEETLSS,0.608 ± 0.15
3,RLPVPRSLWSSN,0.709 ± 0.013
4,KELRYKKDRKKK,0.689 ± 0.026
5,KTGATAIKKINK,0.695 ± 0.039
6,KRGKNKKYKNRF,0.638 ± 0.074
7,LLSVPCPLVCRL,0.699 ± 0.037
8,PPSRPPPPPPSP,0.702 ± 0.061
9,VRQLRGPWMEYP,0.682 ± 0.076
10,PPVLTLFMPSYS,0.7051 ± 0.0043
11,RIGICSTNTSLQ,0.722 ± 0.067
12,FVASVGVGGGVG,0.58 ± 0.013
13,LRGIGVSWWKGL,0.583 ± 0.023
14,GHSRSTFPWLVI,0.79 ± 0.095
15,LPLPPALPSPSL,0.658 ± 0.027
16,FVSFFPFPFLLL,0.482 ± 0.045
17,SPPRPPCLPLTP,0.713 ± 0.048
18,GVGGVARGERIP,0.678 ± 0.0085
19,GLPFRYASYLFS,0.704 ± 0.031
20,GERDWRAKRTRE,0.692 ± 0.055
21,GGGDGIHRYAGG,0.7 ± 0.035
22,VCLRRYGVMADV,0.628 ± 0.015
23,GGRNGLGITGGE,0.648 ± 0.034
24,RGRRGAGRKGGP,0.751 ± 0.15
25,PLKKLTRIIPKL,0.747 ± 0.1
26,CSAGLSDRGFCE,0.663 ± 0.023

row,Sequence,protein stability index
1,LPTPSSSYLYPA,0.611 ± 0.017
2,AVRCEEKGLLLS,0.674 ± 0.017
3,VIGGGRVLGIGG,0.653 ± 0.1
4,IINKKANQKKKE,0.68 ± 0.032
5,VVWRCCGRGAEG,0.6457 ± 0.0016
6,PPRPPPFPPLLP,0.679 ± 0.058
7,PPPSRSLPPRRL,0.661 ± 0.03
8,EVEGFLFVFEVK,0.609 ± 0.015
9,CSVRGDVANYAF,0.6457 ± 0.0028
10,LDGGYGRHGVGD,0.6765 ± 0.00099
11,PPLPPRSISPVL,0.737 ± 0.11
12,VYEGLRSGPRSL,0.718 ± 0.093
13,VIGIRNGADMSI,0.667 ± 0.013
14,PSPMVPHVPMST,0.74579 ± 0.00057
15,VGRGGGGWRLEG,0.694 ± 0.078
16,AATGPPHPPSPP,0.804 ± 0.037
17,SVVRKDNKLHTV,0.596 ± 0.035
18,VADGEAGPLFKI,0.644 ± 0.069
19,STPPPPALPEYQ,0.698 ± 0.023
20,PRRAARLLPRPL,0.693 ± 0.015
